B1: m2.8 (dsDNA)
DNA 1: ATTTCCCGGTATTTCAATTTGTCAAGGGAT
DNA 2: ATCCCTTGACAAATTGAAATACCGGGAAAT
B2: m2.5 (dsDNA)
DNA 1: ATTTCCCGGTATTTCAATTTGTCAGAATAT
DNA 2: ATATTCTGACAAATTGAAATACCGGGAAAT
B3: ICS1 -278 (dsDNA)
DNA 1: CTAATAATAATAGATCAAACAATTAACTGA
DNA 2: TCAGTTAATTGTTTGATCTATTATTATTAG
B4: m2.1 (dsDNA)
DNA 1: ATTTCCCGGTATTTCAATGGGTCAAGATAT
DNA 2: ATATCTTGACCCATTGAAATACCGGGAAAT
B5: m2.4 (dsDNA)
DNA 1: ATTTCCCGGTATTTCAATTTGTCACCATAT
DNA 2: ATATGGTGACAAATTGAAATACCGGGAAAT
B6: ICS1 -725 (dsDNA)
DNA 1: ATTTTAGAAATGTGTCAAAATTTAAAGGAG
DNA 2: CTCCTTTAAATTTTGACACATTTCTAAAAT
B7: m1+2 (dsDNA)
DNA 1: ATTTCCCGGTATTTCAATTTCCGGAGATAT
DNA 2: ATATCTCCGGAAATTGAAATACCGGGAAAT
B8: m2.7 (dsDNA)
DNA 1: ATTTCCCGGTATTTCACCTTGTCAAGATAT
DNA 2: ATATCTTGACAAGGTGAAATACCGGGAAAT
B9: m1 (dsDNA)
DNA 1: ATTTCCCGGTATTTCAATTTGTCAAGATAT
DNA 2: ATATCTTGACAAATTGAAATACCGGGAAAT
B10: m2.3 (dsDNA)
DNA 1: ATTTCCCGGTATTTCAATTTGTGGAGATAT
DNA 2: ATATCTCCACAAATTGAAATACCGGGAAAT
B11: m2.2 (dsDNA)
DNA 1: ATTTCCCGGTATTTCAATTTCCCAAGATAT
DNA 2: ATATCTTGGGAAATTGAAATACCGGGAAAT
B12: ICS1 -844 WK-like box (dsDNA)
DNA 1: AATAGTATTGATTTTCCAAATTTAATTATA
DNA 2: TATAATTAAATTTGGAAAATCAATACTATT
B13: ICS1 -648 (dsDNA)
DNA 1: TTGCAATTTGTAGTGACATGTAATGTTTTT
DNA 2: AAAAACATTACATGTCACTACAAATTGCAA
B14: m2 (dsDNA)
DNA 1: ATTTCTGACTATTTCAATTTCCGGAGATAT
DNA 2: ATATCTCCGGAAATTGAAATAGTCAGAAAT

Target: T1, GST-WRKY28 (Arabidopsis thaliana, UniProt Q8VWJ2 1-318)
Assay: EMSA; unaltered binding; 0.5 ug protein, ~0.01 pmol probe; 3 uL 5x buffer (20% glycerol, 5 mM MgCl2, 2.5 mM EDTA, 2.5 mM DTT, 250 mM NaCl, 50 mM Tris-HCl pH 7.5, 0.25 mg/mL poly(dI-dC)) in 14 uL + 1 uL probe (final about 50 mM NaCl, 10 mM Tris, 1 mM MgCl2); room temperature, 20 min
Settings: protein: recombinant; tags: N-terminal GST (pGEX-KG); label: 32P-dCTP end-fill (Klenow); 5'-GGG overhangs filled in with Klenow

T1 sequence (Q8VWJ2 whole entry): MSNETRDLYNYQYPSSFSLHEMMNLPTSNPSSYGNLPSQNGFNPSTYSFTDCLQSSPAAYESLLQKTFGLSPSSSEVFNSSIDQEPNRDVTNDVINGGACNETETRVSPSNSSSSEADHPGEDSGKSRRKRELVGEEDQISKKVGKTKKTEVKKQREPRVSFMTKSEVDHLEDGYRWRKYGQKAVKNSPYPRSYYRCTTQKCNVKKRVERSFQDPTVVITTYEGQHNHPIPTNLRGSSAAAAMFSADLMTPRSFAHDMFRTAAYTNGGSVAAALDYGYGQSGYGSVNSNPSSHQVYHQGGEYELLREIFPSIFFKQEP

| Binder | binding result |
| --- | --- |
| B1 | binds |

Target: T1, GST-WRKY28
Assay: EMSA; as strong as wild type; 0.5 ug protein, ~0.01 pmol probe; 3 uL 5x buffer (20% glycerol, 5 mM MgCl2, 2.5 mM EDTA, 2.5 mM DTT, 250 mM NaCl, 50 mM Tris-HCl pH 7.5, 0.25 mg/mL poly(dI-dC)) in 14 uL + 1 uL probe (final about 50 mM NaCl, 10 mM Tris, 1 mM MgCl2); room temperature, 20 min
Settings: protein: recombinant; tags: N-terminal GST (pGEX-KG); label: 32P-dCTP end-fill (Klenow); 5'-GGG overhangs filled in with Klenow

| Binder | binding result |
| --- | --- |
| B2 | binds |

Target: T1, GST-WRKY28
Assay: EMSA; 0.5 ug protein, ~0.01 pmol probe; 3 uL 5x buffer (20% glycerol, 5 mM MgCl2, 2.5 mM EDTA, 2.5 mM DTT, 250 mM NaCl, 50 mM Tris-HCl pH 7.5, 0.25 mg/mL poly(dI-dC)) in 14 uL + 1 uL probe (final about 50 mM NaCl, 10 mM Tris, 1 mM MgCl2); room temperature, 20 min
Settings: protein: recombinant; tags: N-terminal GST (pGEX-KG); label: 32P-dCTP end-fill (Klenow); 5'-GGG overhangs filled in with Klenow

| Binder | binding result |
| --- | --- |
| B3 | no binding |
| B4 | binds |
| B5 | binds |
| B6 | no binding |
| B7 | no binding |
| B8 | no binding |
| B9 | binds |
| B10 | no binding |
| B11 | no binding |
| B12 | no binding |
| B13 | no binding |
| B14 | binds |

Source: paper PMC3120740, “WRKY Transcription Factors Involved in Activation of SA Biosynthesis Genes”
